Key:
[1] = system: T1, G8PEX from Pseudomonas phage Pf1
T1 sequence: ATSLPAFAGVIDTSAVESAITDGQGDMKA

[2] = system: T2, G8PEX from bacteriophage I2-2
T2 sequence: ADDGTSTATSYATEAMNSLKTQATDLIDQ

[3] = system: T3, G8PEX from bacteriophage f1
T3 sequence: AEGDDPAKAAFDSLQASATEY

[4] = system: T4, G8PEX ortholog peptide from L. monocytogenes (strain M7) bacteriophage M7
T4 sequence: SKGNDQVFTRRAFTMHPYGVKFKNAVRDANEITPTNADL

[5] = system: T5, G8PEX, extracellular region of the major coat protein G8P from bacteriophage M13
T5 sequence: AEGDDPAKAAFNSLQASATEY

## Streptococcus pyogenes Cas9 nuclease (SpCas9)
[1]
  in vitro cleavage activity of SpCas9: could efficiently inhibit the cleavage activity of SpCas9 in vitro
[2]
  in vitro cleavage activity of SpCas9: could efficiently inhibit the cleavage activity of SpCas9 in vitro
[3]
  in vitro cleavage activity of SpCas9: could efficiently inhibit the cleavage activity of SpCas9 in vitro
[4]
  DNA cleavage activity of SpCas9: efficiently prohibited SpCas9 to bind to sgRNA (FIG. 7d) or cleave DNA substrate (FIG. 7e)
[5]
  in vitro DNA cleavage by pre-assembled Cas9 RNP: the activity of pre-assembled Cas9 RNP was not affected by G8PEX
  in vitro cleavage activity of SpCas9: could efficiently inhibit the cleavage activity of SpCas9 in vitro
